From paper PMC3832594, “The Neuroplastin Adhesion Molecules Are Accessory Proteins That Chaperone the Monocarboxylate Transporter MCT2 to the Neuronal Cell Surface” (PLoS ONE, 2013)

Molecular target: T1, MCT2 tagged at its N-terminus with CFP (rat, UniProt Q63344 1-489)
T1 construct: Monocarboxylate transporter MCT2; also called MCT2-ECFP (N-terminal); MCT2-CFP; source: COS-7, transiently transfected (Fugene 6), in live cells; not shown: ECFP, N-terminal, kept
T1 sequence (looked up): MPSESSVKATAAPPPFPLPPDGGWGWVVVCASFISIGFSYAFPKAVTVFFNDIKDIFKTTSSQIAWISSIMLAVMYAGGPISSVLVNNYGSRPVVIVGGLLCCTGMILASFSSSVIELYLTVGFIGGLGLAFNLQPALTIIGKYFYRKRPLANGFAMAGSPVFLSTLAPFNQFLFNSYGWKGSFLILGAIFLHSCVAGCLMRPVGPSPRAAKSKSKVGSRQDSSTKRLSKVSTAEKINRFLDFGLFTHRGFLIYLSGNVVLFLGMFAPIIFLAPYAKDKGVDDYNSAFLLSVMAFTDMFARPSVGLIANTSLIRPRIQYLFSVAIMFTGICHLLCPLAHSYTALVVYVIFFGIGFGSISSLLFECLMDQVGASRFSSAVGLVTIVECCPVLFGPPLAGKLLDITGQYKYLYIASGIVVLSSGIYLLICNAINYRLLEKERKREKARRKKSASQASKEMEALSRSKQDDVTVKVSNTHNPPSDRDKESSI
Test: FRET or BRET; live COS-7 cells co-transfected with MCT2-ECFP (N-terminal) and np55- or np65-EYFP (C-terminal), 48 h after transfection; 37°C, imaging buffer pH 7.4; ratio of emission at 480 nm to 530 nm on excitation at 430 nm (MCT2-CFP alone 1.33±0.016)
Conditions: partners not purified

B1: np65 C-terminally labelled with YFP (natural protein)
chain: not shown
notes: Neuroplastin np65, the form with 3 Ig domains; also called np65-EYFP (C-terminal); np65-YFP; source: COS-7, transiently transfected (Fugene 6), in live cells; not shown: EYFP, C-terminal, kept
480:530 nm fluorescence emission ratio (FRET): 0.792
